Here are results for five molecules from patent US12252714B2, “Halogenation of complex organic compounds” (REGENTS OF THE UNIVERSITY OF MICHIGAN, priority 2018, dated 2025).

The nature of data set [1]: MalA biochemical activity assays, mutants versus wild-type MalA. The conditions noted are these: for site-selectivity of chlorination: chlorination of compound 2, C8 versus C9; for halogenase activity relative to wild-type MalA: chlorination of compound 2. How it is done: Biochemical activity assays were performed in a 100 μL volume with the following components: 18 μM MalA, 54 μM HpaC flavin reductase,^3 100 μM FAD, 50 mM NaCl, 250 μM substrate, 5 mM NADH, and brought to total volume with reaction buffer (same as storage bufferNaBr). The chlorination reactions proceeded for 20 minutes and the bromination reactions proceeded overnight. The reactions were extracted with ethyl acetate ([…], in triplicate) and dried down under nitrogen gas. The dried extract was resuspended in LC/MS grade methanol to a concentration of around 10 μM for LC/MS analysis. High resolution mass spectrometry was performed using electrospray ionization on an Agilent quadrupole time-of-flight spectrometer (Q-TOF 6500 series). Biochemical activity was monitored via the following HPLC method using acetonitrile and water: 65% acetonitrile for 5 minutes, gradient over 10 minutes to 95% acetonitrile, 95% acetonitrile for 5 minutes, gradient over 2 minutes to 65% acetonitrile, 65% acetonitrile for 11 minutes to re-equilibrate with a flow rate of 0.3 mL/minute, monitoring at 240 nm on a Phenomenex Lux cellulose-3, cellulose Tris (4-methylbenzoate) 250×4.6 mm column.

For data set [2] the following is noted: cited from earlier work.

Where two headings read alike, the source gives them in different places.

B1: S129A/I493S: C9-selective MalA halogenase double mutant (protein, listed as Malbranchea aurantiaca)
chain: MAPTPKYTFTERAAAGNLSDAEILNSNNPTGSELPDESDVVVGGAGIHGLIYALHASKYKPNNLKISVIEKNTRPGYKIGESTLPIFYTWCKLHGISAAYLLRLFGLKDGLCFYFLDRENQGQYTDFCAVGAPGLVLASLQIERPMSELLFTILAQRNGVNVYHGREVDFKSTVVQGGGQGNKIAVSRGKYDSTPKTIDSALFVDATGRFRQFCSKKAPRHRFDGWNCNAFWGYFTAPKDESKIPFDLYEGDHTNHLCFPEGWVWVIRLPSWEGSLIANLMDMVTYILECADAGVPGDELPSSEELARMFGLKFQWVTSIGFAVRNDVKYPEDLSAYGTREAEQKFNYFVQKYELLQQFMSNFELIENLYGPGTTWFIRKTLAYQSPVVSGPGWLAIGDACGFTNPLYSPGINVGMSTSTWAAQLSHRIVEIGKSAPADAAESSIRKLLVPYDDYCKSLVPALEQMNRFNYVCYRDTRLGPQVACLWQFFAGSERYLSDVNIETFAHYAIKWVWGAMVPEYQQVAQKCIEHIETVPLDERLPDAMVDELLAFSNRIKSAAVAADDFSLRWDAILRSFDRSLNFVEGKTSRDIYTRQCSGCGAWLQLRPDWKKCHSCGLLGTEPQTAVTFDPPLTAEEEALLYAAWNTAPKYDPSKELKLPTPTRPAA
modifications: MalA (S129A/I493S) protein
Consider B1, for which, in data set [1], the site-selectivity of chlorination result was “C9-selective”.

B2: MalA F489H: MalA halogenase variant, Phe489 substituted with histidine (protein, UniProt L0E155 1-667, looked up, variant F489H)
Flavin-dependent halogenase …: MAPTPKYTFTERAAAGNLSDAEILNSNNPTGSELPDESDVVVGGAGIHGLIYALHASKYKPNNLKISVIEKNTRPGYKIGESTLPIFYTWCKLHGISAAYLLRLFGLKDGLCFYFLDRENQGQYTDFCSVGAPGLVLASLQIERPMSELLFTILAQRNGVNVYHGREVDFKSTVVQGGGQGNKIAVSRGKYDSTPKTIDSALFVDATGRFRQFCSKKAPRHRFDGWNCNAFWGYFTAPKDESKIPFDLYEGDHTNHLCFPEGWVWVIRLPSWEGSLIANLMDMVTYILECADAGVPGDELPSSEELARMFGLKFQWVTSIGFAVRNDVKYPEDLSAYGTREAEQKFNYFVQKYELLQQFMSNFELIENLYGPGTTWFIRKTLAYQSPVVSGPGWLAIGDACGFTNPLYSPGINVGMSTSTWAAQLSHRIVEIGKSAPADAAESSIRKLLVPYDDYCKSLVPALEQMNRFNYVCYRDTRLGPQVACLWQHFAGIERYLSDVNIETFAHYAIKWVWGAMVPEYQQVAQKCIEHIETVPLDERLPDAMVDELLAFSNRIKSAAVAADDFSLRWDAILRSFDRSLNFVEGKTSRDIYTRQCSGCGAWLQLRPDWKKCHSCGLLGTEPQTAVTFDPPLTAEEEALLYAAWNTAPKYDPSKELKLPTPTRPAA
Regarding B2, the “halogenase activity relative to wild-type MalA” value in data set [1] is listed as “significantly decreased”.

B3: MalA K108A: MalA halogenase mutant of the catalytic lysine Lys108 (protein, UniProt L0E155 1-667, looked up, variant K108A)
Flavin-dependent halogenase …: MAPTPKYTFTERAAAGNLSDAEILNSNNPTGSELPDESDVVVGGAGIHGLIYALHASKYKPNNLKISVIEKNTRPGYKIGESTLPIFYTWCKLHGISAAYLLRLFGLADGLCFYFLDRENQGQYTDFCSVGAPGLVLASLQIERPMSELLFTILAQRNGVNVYHGREVDFKSTVVQGGGQGNKIAVSRGKYDSTPKTIDSALFVDATGRFRQFCSKKAPRHRFDGWNCNAFWGYFTAPKDESKIPFDLYEGDHTNHLCFPEGWVWVIRLPSWEGSLIANLMDMVTYILECADAGVPGDELPSSEELARMFGLKFQWVTSIGFAVRNDVKYPEDLSAYGTREAEQKFNYFVQKYELLQQFMSNFELIENLYGPGTTWFIRKTLAYQSPVVSGPGWLAIGDACGFTNPLYSPGINVGMSTSTWAAQLSHRIVEIGKSAPADAAESSIRKLLVPYDDYCKSLVPALEQMNRFNYVCYRDTRLGPQVACLWQFFAGIERYLSDVNIETFAHYAIKWVWGAMVPEYQQVAQKCIEHIETVPLDERLPDAMVDELLAFSNRIKSAAVAADDFSLRWDAILRSFDRSLNFVEGKTSRDIYTRQCSGCGAWLQLRPDWKKCHSCGLLGTEPQTAVTFDPPLTAEEEALLYAAWNTAPKYDPSKELKLPTPTRPAA
In the case of B3, the “halogenase activity relative to wild-type MalA” value in data set [1] was “inactive”.

B4: MalA S129 Å/P85S: C8-selective MalA halogenase double mutant (protein, UniProt L0E155 1-667, looked up, variant S129A P85S)
Flavin-dependent halogenase …: MAPTPKYTFTERAAAGNLSDAEILNSNNPTGSELPDESDVVVGGAGIHGLIYALHASKYKPNNLKISVIEKNTRPGYKIGESTLSIFYTWCKLHGISAAYLLRLFGLKDGLCFYFLDRENQGQYTDFCAVGAPGLVLASLQIERPMSELLFTILAQRNGVNVYHGREVDFKSTVVQGGGQGNKIAVSRGKYDSTPKTIDSALFVDATGRFRQFCSKKAPRHRFDGWNCNAFWGYFTAPKDESKIPFDLYEGDHTNHLCFPEGWVWVIRLPSWEGSLIANLMDMVTYILECADAGVPGDELPSSEELARMFGLKFQWVTSIGFAVRNDVKYPEDLSAYGTREAEQKFNYFVQKYELLQQFMSNFELIENLYGPGTTWFIRKTLAYQSPVVSGPGWLAIGDACGFTNPLYSPGINVGMSTSTWAAQLSHRIVEIGKSAPADAAESSIRKLLVPYDDYCKSLVPALEQMNRFNYVCYRDTRLGPQVACLWQFFAGIERYLSDVNIETFAHYAIKWVWGAMVPEYQQVAQKCIEHIETVPLDERLPDAMVDELLAFSNRIKSAAVAADDFSLRWDAILRSFDRSLNFVEGKTSRDIYTRQCSGCGAWLQLRPDWKKCHSCGLLGTEPQTAVTFDPPLTAEEEALLYAAWNTAPKYDPSKELKLPTPTRPAA
Consider B4, for which the site-selectivity of chlorination result in data set [1] was “C8-selective”.

B5: Rdc2: eukaryotic FDH Rdc2, literature comparison (protein, UniProt B3FWT7 22-519, looked up)
Flavin-dependent halogenase …: AAALAREGNDVVLLEADQHPRYHIGESMLPSLRPLLRFIDLEDKFDAHGFQKKLGAAFKLTSKREGSHGPRGYSWNVVRSESDEILFNHARESGAQAFQGIKINAIEFEPYEEEYPNGEKVANPGKPTSAKWSSKDGSSGDIAFKYLVDATGRIGIMSTKYLKNRHYNEGLKNLAIWGYYKNNIPWAQGTPRENQPFFEGMRDGAGWCWTIPLHNGTVSVGAVMRKDLFFEKKKSLGENATNTQIMAECMKLCPTIGELLAPAELVSDIKQATDYSYSATAYAGPNFRIVGDAGCFIDPFFSSGHHLAVAGALAAAVSINASIKGDCTEYEASRWHAKKVDEGYTLFLLVVMAALKQIRMQENPVLSDVDEDGFDRAFQFLRPEAVKKFTKEDVAQTIDFAVHALNNMAELDMDIPEHMINGDKEGENGVTNGNNGAAKTAGLASNMEKLTNDEEKVLNGLRILGKAAPGGTLADFEGTAIDGLMPRLEHGKLGLNKV
For the molecule B5, the catalytic efficiency was 2.93 min⁻¹ mM⁻¹ in data set [2] (initial chlorination reaction) and 0.11 min⁻¹ mM⁻¹ in data set [2] (second chlorination reaction).
